Each block holds one binder with its values, some of them ahead of it. Ends that are not written are not given here.
How the values were obtained:
UvrA-eGFPd = biological target: T1, UvrA-eGFPd (E. coli, UniProt P0A698 1-940); assay: FRET or BRET; KD-FRET: sensitized-emission (three-channel) FRET microscopy of single living E. coli BW25993 cells (UvrA/UvrB: uvrA uvrB double deletion strain), donor eGFPd fusion from pFF838, acceptor mRFP fusion from pBBR6k, M9 medium, 37 °C; corrections to step 6; FRET efficiency against binned acceptor concentration fitted to a quadratic binding equation; settings: partners not purified
T1 construct: UvrA, nucleotide excision repair protein of E. coli; source: E. coli BW25993 with double deletion of uvrA and uvrB (SY006), expressed from the donor vector, in living cells; not shown: eGFPd, C-terminal, kept
T1 sequence (looked up): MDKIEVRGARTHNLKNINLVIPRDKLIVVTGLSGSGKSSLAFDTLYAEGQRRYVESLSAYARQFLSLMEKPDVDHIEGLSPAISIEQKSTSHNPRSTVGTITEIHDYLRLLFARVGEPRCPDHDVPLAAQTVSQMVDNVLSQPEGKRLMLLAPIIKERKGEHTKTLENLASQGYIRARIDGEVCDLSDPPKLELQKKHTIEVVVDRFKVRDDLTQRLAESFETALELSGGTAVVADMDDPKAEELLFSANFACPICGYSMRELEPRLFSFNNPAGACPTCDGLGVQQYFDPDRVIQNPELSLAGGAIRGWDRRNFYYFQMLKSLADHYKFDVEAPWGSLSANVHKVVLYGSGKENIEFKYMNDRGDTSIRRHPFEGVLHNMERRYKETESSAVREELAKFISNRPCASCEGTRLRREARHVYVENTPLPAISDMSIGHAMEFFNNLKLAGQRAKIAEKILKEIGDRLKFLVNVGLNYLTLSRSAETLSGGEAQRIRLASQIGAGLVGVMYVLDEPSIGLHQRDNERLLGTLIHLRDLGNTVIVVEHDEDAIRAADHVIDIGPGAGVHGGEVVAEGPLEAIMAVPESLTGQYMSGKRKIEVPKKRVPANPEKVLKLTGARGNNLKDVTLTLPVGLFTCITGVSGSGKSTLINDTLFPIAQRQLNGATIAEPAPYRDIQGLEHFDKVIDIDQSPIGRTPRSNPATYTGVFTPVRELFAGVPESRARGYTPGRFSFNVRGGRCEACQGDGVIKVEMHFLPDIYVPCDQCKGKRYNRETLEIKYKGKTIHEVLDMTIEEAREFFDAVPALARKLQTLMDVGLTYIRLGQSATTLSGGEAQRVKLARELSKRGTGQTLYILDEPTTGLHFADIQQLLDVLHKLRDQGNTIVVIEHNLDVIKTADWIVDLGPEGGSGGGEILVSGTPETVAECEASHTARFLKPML

eGFPd-^CDD_(MlnB) [1] = biological target: T2, eGFPd-^CDD_(MlnB); assay: ITC; cell: 80 × 10^-6 M eGFPd-CDD_MlnB; syringe: 1.6 × 10^-3 M NDD_MlnC-mRFP, 20 injections of 2 µL; 20 mM Tris-HCl pH 7.9, 250 mM NaCl, 1 mM EDTA, 10% glycerol, 1 mM TCEP; 37 °C; single binding site model; settings: both partners purified
T2 chain: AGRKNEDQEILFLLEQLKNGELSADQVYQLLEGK

eGFPd-^CDD_(MlnB) [2] = biological target: T2, eGFPd-^CDD_(MlnB); assay: FRET or BRET; in vitro FRET with purified fusion proteins in PBS, plate reader, 37 °C; donor protein fixed at 1 × 10^-6 M, acceptor protein 0 to 20 × 10^-6 M; settings: both partners purified
eGFPd-^CDD_(MlnB) [3] = biological target: T2, eGFPd-^CDD_(MlnB); assay: FRET or BRET; KD-FRET: sensitized-emission (three-channel) FRET microscopy of single living E. coli BW25993 cells (UvrA/UvrB: uvrA uvrB double deletion strain), donor eGFPd fusion from pFF838, acceptor mRFP fusion from pBBR6k, M9 medium, 37 °C; corrections to step 6; FRET efficiency against binned acceptor concentration fitted to a quadratic binding equation; settings: partners not purified
^CDD_(ElaJ) = biological target: T3, ^CDD_(ElaJ); assay: as above; settings: partners not purified
T3 chain: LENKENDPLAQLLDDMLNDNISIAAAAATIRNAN

[4] = biological target: T4, ^CDD_(MlnD) labeled with eGFPd; assay: FRET or BRET; in vitro FRET with purified fusion proteins in PBS, plate reader, 37 °C; donor protein fixed at 1 × 10^-6 M, acceptor protein 0 to 20 × 10^-6 M; settings: both partners purified
T4 chain: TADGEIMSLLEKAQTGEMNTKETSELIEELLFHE

[5] = biological target: T4, ^CDD_(MlnD) labeled with eGFPd; assay: FRET or BRET; KD-FRET: sensitized-emission (three-channel) FRET microscopy of single living E. coli BW25993 cells (UvrA/UvrB: uvrA uvrB double deletion strain), donor eGFPd fusion from pFF838, acceptor mRFP fusion from pBBR6k, M9 medium, 37 °C; corrections to step 6; FRET efficiency against binned acceptor concentration fitted to a quadratic binding equation; settings: partners not purified

Kd (eGFPd-^CDD_(MlnB) [1]): 6850 nM
Kd (eGFPd-^CDD_(MlnB) [2]): 5660 nM
Binder: MQIKQILSLIEEQQMSPDAGLELIRTYRKEQMEKK (domain or fragment, also: fused to mRFP) [^NDD_(MlnC)-mRFP]
Kd (eGFPd-^CDD_(MlnB) [3]): 2290 nM

Kd [4]: 1500 nM
Binder: MNEKTMQIEQIVKKVKECSLTPEEGLELIKSLGKT (domain or fragment, also: labeled with mRFP) [^NDD_(MlnE) labeled with mRFP]
Kd [5]: 250 nM

The remaining lines, values behind:

B1: UvrB-mRFP (natural protein, E. coli, UniProt P0A8F8 1-673, looked up)
chain: MSKPFKLNSAFKPSGDQPEAIRRLEEGLEDGLAHQTLLGVTGSGKTFTIANVIADLQRPTMVLAPNKTLAAQLYGEMKEFFPENAVEYFVSYYDYYQPEAYVPSSDTFIEKDASVNEHIEQMRLSATKAMLERRDVVVVASVSAIYGLGDPDLYLKMMLHLTVGMIIDQRAILRRLAELQYARNDQAFQRGTFRVRGEVIDIFPAESDDIALRVELFDEEVERLSLFDPLTGQIVSTIPRFTIYPKTHYVTPRERIVQAMEEIKEELAARRKVLLENNKLLEEQRLTQRTQFDLEMMNELGYCSGIENYSRFLSGRGPGEPPPTLFDYLPADGLLVVDESHVTIPQIGGMYRGDRARKETLVEYGFRLPSALDNRPLKFEEFEALAPQTIYVSATPGNYELEKSGGDVVDQVVRPTGLLDPIIEVRPVATQVDDLLSEIRQRAAINERVLVTTLTKRMAEDLTEYLEEHGERVRYLHSDIDTVERMEIIRDLRLGEFDVLVGINLLREGLDMPEVSLVAILDADKEGFLRSERSLIQTIGRAARNVNGKAILYGDKITPSMAKAIGETERRREKQQKYNEEHGITPQGLNKKVVDILALGQNIAKTKAKGRGKSRPIVEPDNVPMDMSPKALQQKIHELEGLMMQHAQNLEFEEAAQIRDQLHQLRELFIAAS
notes: UvrB, nucleotide excision repair protein of E. coli; source: E. coli BW25993 with double deletion of uvrA and uvrB (SY006), expressed from the acceptor vector, in living cells; not shown: mRFP, C-terminal, kept
Kd (UvrA-eGFPd): 170 nM

Binder: MKDYIEHILEEIKHNRLSKQEGLEQIRQFRSKGNV (domain or fragment, not fully specified) [^NDD_(ElaK)]
Kd (^CDD_(ElaJ)): 1180 nM
